Legend:
[1] = biological target: C-terminal truncated Myc-hFcγRIa which lacks the cytoplasmic tail (human) (UniProt P12314); assay: adhesion of bacteria to transfected cells (total cell associated bacteria); COS-1 monolayers transfected with Myc-hFcγRIa, Myc-hFcγRIa-CT, Myc-hFcγRII or pcDNA3 (mock); E. coli K1 at an MOI of 100, 1.5 h, 37°C; cell associated bacteria plated
[2] = biological target: FcγRIa of RAW 264.7 cells (mouse (endogenous in RAW 264.7)) (UniProt P26151)
Sequence of UniProt P26151 (P26151 25-404): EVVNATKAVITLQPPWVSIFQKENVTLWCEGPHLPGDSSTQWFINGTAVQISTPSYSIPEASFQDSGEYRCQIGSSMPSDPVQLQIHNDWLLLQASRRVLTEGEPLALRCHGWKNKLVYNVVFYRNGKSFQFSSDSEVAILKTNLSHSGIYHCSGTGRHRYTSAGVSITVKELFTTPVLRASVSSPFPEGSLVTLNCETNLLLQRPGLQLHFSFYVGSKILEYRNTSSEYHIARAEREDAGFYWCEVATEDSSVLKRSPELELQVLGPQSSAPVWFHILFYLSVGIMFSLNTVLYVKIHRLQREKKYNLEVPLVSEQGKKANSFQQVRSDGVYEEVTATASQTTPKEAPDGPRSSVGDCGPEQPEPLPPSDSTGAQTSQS

Sequence of UniProt P12314 (P12314 16-314): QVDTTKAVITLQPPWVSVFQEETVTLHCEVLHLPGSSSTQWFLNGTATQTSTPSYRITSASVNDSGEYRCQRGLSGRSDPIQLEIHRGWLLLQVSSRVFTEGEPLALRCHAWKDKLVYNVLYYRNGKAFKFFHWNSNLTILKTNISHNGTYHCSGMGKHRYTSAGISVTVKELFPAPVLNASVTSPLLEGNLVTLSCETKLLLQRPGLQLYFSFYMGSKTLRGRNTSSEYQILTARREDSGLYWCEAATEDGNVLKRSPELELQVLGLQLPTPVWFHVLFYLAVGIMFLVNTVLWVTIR

“outer membrane protein A (OmpA) of E. coli K1 (from UniProt P0A910 22-346) (natural protein)” was tested, and the decrease of bacterial binding against Myc-hFcγRIa+/COS-1 cells [1] was 30% and the reduction of intracellular E. coli K1 in RAW 264.7 cells (gentamicin protection assay) by Fab fragments of anti-OmpA antibody or by anti-FcγRI antibody [2] was 80%.

Source: paper PMC2987830
